The values that follow come from patent US20160046671A1.

For this assay, the target named is Wild-type human KRAS protein, N-terminal His6-tag fusion (human), P01116. Put plainly: fluorescence polarization. Particulars: modification not given.

Bridges are numbered along the chain shown (N, C = ends). Where no end group is shown, it is not given here. [ ]: non-standard residue; d: D form. S5 = C=CCCC[C@](C)(N)C(=O)O

B1: SAH-SOS A2 (peptide)
chain: RRF[S5]GIY[S5]TNILKTEEGN
modifications: staple 4-8
In the case of B1, the Kd turned out to be 21 nM.
